Results from patent US20050261472A1, “Binding moieties for fibrin” (Dyax Corp., priority 1999, published 2005).
Bridge positions count the residues as written; N and C are the ends. Ends that are not written are not given here. Peptide text beside a SMILES is read from it.

The molecules below were run against T1, DD(E) (Homo sapiens, UniProt P02671+P02675+P02679) (assay: dissociation constant against fibrin-derived polypeptide DD(E)). Conditions: read-out: Kd DD(E).
T1 construct: host or cells: purchased fibrinogen clotted with thrombin, digested with plasmin, then purified by ammonium sulfate cuts and Sephacryl S200
T1 sequence (P02671 130-216): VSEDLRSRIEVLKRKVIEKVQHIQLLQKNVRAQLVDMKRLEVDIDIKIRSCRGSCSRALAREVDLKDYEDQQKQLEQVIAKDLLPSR
T1 sequence (P02675 164-491): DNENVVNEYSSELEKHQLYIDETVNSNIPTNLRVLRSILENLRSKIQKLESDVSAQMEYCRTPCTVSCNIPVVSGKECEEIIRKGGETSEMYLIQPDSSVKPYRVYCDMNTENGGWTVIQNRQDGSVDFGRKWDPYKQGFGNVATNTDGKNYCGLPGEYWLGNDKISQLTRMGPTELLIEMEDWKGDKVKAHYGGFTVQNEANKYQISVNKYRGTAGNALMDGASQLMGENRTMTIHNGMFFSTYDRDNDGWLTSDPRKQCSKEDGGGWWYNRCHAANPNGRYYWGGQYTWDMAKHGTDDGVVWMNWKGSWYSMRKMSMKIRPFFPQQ
T1 sequence (P02679 114-432): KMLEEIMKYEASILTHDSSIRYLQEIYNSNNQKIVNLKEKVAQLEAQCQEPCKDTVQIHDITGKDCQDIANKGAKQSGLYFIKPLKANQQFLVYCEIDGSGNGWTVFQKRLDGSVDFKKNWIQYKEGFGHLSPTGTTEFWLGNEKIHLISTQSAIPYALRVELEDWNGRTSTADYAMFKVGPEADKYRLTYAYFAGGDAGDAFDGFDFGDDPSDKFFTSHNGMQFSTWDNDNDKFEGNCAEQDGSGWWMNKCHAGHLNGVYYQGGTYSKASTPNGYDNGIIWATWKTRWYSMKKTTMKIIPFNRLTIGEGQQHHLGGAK
T1 sequence (P02671 36-97): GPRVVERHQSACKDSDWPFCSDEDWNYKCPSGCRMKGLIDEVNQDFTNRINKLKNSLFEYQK
T1 sequence (P02675 45-152): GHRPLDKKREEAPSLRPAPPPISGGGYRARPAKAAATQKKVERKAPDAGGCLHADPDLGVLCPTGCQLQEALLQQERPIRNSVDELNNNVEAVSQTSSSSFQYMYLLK
T1 sequence (P02679 27-88): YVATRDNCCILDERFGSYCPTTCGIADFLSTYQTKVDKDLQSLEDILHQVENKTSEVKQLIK
Assay type: binding
Experimental: The soluble fibrin-derived polypeptide DD(E) was prepared following a modification of a published method (Moskoitz and Budzynksi, Biochemistry, 33: 12937-12944 (1994) and references therein). Fibrinogen containing a Factor XIII trace impurity (1 g, Grade L; purchased from American Diagnostica) was dissolved in TBS buffer and dialyzed overnight against TBS containing 5 mM citrate. The fibrinogen concentration was adjusted to 3.0 mg/ml and CaCl2 was added to a concentration of 10 mM. Clotting of the fibrinogen was initiated by the addition of thrombin to 0.5 U/ml and the clot was incubated for 3 hours at 37° C. The clot was cut up with a spatula to release water and to concentrate the clot. The clot pieces were washed twice with TBS.Ca buffer (TBS containing 2 mM CaCl2) and were centrifuged at 4,000×g to compact the clots between washes. The clot material was resuspended in 250 ml TBS containing 25 mM CaCl2 and 2 K.I.U. plasmin per mg fibrin. The clots were digested overnight at 20° C. Undigested clot was removed by pipette, and the supernatant was shaken with 10 ml of Lysine Sepharose (Pharmacia) for 30 minutes and filtered to remove the resin. Aprotinin was added to the filtrate to a concentration of 500 U/μL. Ammonium Sulfate was added to 30% saturation and the precipitated protein was removed by centrifugation. More ammonium sulfate was added to the supernatant to a final concentration of 50% saturation, and the precipitated protein was concentrated by centrifugation. The pellets, containing DD(E), were resuspended in a small volume of buffer (50 mM Tris, 150 mM NaCl, 2 mM CaCl2) (<10 ml) and chromatographed on a Sephacryl S200 (Pharmacia) size exclusion column (5×100 cm) in the same buffer. Fractions of protein eluted from the column were assayed by SDS-PAGE for DD(E). DD(E) contains subunits of 55 kD (Fragment E) and 190 kD (Fragment DD). […]
Dissociation constants were determined against DD(E) as described above.

Row | Molecule | Kd [µM]
1 | CC[C@H](C)[C@H](NC(=O)[C@H](Cc1c[nH]cn1)NC(=O)[C@@H]1CSSC[C@H](NC(=O)[C@H](Cc2c[nH]cn2)NC(=O)[C@H](Cc2ccccc2)NC(=O)CN)C(=O)N2CCC[C@H]2C(=O)N[C@@H](Cc2ccc(O)cc2)C(=O)N[C@@H](CC(=O)O)C(=O)N[C@@H](CC(C)C)C(=O)N1)C(=O)N[C@@H](CC(C)C)C(N)=O [SEQ ID NO: 57, GFHCPYDLCHIL] (H-GFHCPYDLCHIL-NH2; disulfide 4-9 (inferred); N-terminus and C-terminus assumed) | 6.7
2 | CC(C)C[C@H](NC(=O)[C@@H]1CSSC[C@H](NC(=O)[C@@H]2CCCN2C(=O)[C@@H](N)CC(C)C)C(=O)N[C@@H](CC(=O)O)C(=O)N[C@@H](C)C(=O)N[C@@H](Cc2ccc(O)cc2)C(=O)NCC(=O)N[C@@H]([C@@H](C)O)C(=O)N1)C(=O)N[C@@H](CC(=O)O)C(N)=O [SEQ ID NO: 43, LPCDAYGTCLD] (H-LPCDAYGTCLD-NH2; disulfide 3-9) | 4.5

Same assay, conditions: sequences of phage isolates from TN10-9 and TN6-6 libraries (Table 5); read-out: Kd DD(E)

Row | Molecule | Kd [µM]
3 | QWECPYGLCWIQ [compound 22] | 0.74

What follows are molecules tested against DD(E) soluble fibrin-derived polypeptide (UniProt P02671) (assay: Kd against DD(E) target). Conditions: not given.

Row | Molecule | Kd [µM]
4 | ECPYGLCWIQ | 2.23
5 | LPCDYYATCLD (C-terminal amide; N-terminus free) | 12.3
6 | WECPYGLCWI | 3.87
7 | LPCDYXGTCLD (1-naphthyl residue (Nal) at position 6; C-terminal amide; N-terminus free) [substituted peptide LPCDYNalGTCLD] | 125
8 | H-LACDYYGTCLD-NH2 (disulfide 3-9; SMILES CC(C)C[C@H](NC(=O)[C@@H]1CSSC[C@H](NC(=O)[C@H](C)NC(=O)[C@@H](N)CC(C)C)C(=O)N[C@@H](CC(=O)O)C(=O)N[C@@H](Cc2ccc(O)cc2)C(=O)N[C@@H](Cc2ccc(O)cc2)C(=O)NCC(=O)N[C@@H]([C@@H](C)O)C(=O)N1)C(=O)N[C@@H](CC(=O)O)C(N)=O) | 2.9
9 | H-PCDYYGTCL-NH2 (disulfide 2-8 (inferred)) [truncated peptide …] | 50
10 | H-FACHYYGTCLH-NH2 (disulfide 3-9; SMILES CC(C)C[C@H](NC(=O)[C@@H]1CSSC[C@H](NC(=O)[C@H](C)NC(=O)[C@@H](N)Cc2ccccc2)C(=O)N[C@@H](Cc2c[nH]cn2)C(=O)N[C@@H](Cc2ccc(O)cc2)C(=O)N[C@@H](Cc2ccc(O)cc2)C(=O)NCC(=O)N[C@@H]([C@@H](C)O)C(=O)N1)C(=O)N[C@@H](Cc1c[nH]cn1)C(N)=O) | 7.3
11 | H-RPCNYYGTCLH-NH2 (disulfide 3-9; SMILES CC(C)C[C@H](NC(=O)[C@@H]1CSSC[C@H](NC(=O)[C@@H]2CCCN2C(=O)[C@@H](N)CCCNC(=N)N)C(=O)N[C@@H](CC(N)=O)C(=O)N[C@@H](Cc2ccc(O)cc2)C(=O)N[C@@H](Cc2ccc(O)cc2)C(=O)NCC(=O)N[C@@H]([C@@H](C)O)C(=O)N1)C(=O)N[C@@H](Cc1c[nH]cn1)C(N)=O) | 4
12 | LPCDYYXTCLD (not fully specified; D-alanine at position 7) [D-alanine peptide LPCDYYdATCLD] | 4.9
13 | H-CDYYGTC-NH2 (disulfide 1-7 (inferred)) [truncated peptide CDYYGTC] | 38
14 | FHCPYDLCHIL | 0.41
15 | H-CDYYGTCL-NH2 (disulfide 1-7 (inferred)) [truncated peptide CDYYGTCL] | 22
16 | H-LPCDYYGTCAD-NH2 (disulfide 3-9; SMILES CC(C)C[C@H](N)C(=O)N1CCC[C@H]1C(=O)N[C@H]1CSSC[C@@H](C(=O)N[C@@H](C)C(=O)N[C@@H](CC(=O)O)C(N)=O)NC(=O)[C@H]([C@@H](C)O)NC(=O)CNC(=O)[C@H](Cc2ccc(O)cc2)NC(=O)[C@H](Cc2ccc(O)cc2)NC(=O)[C@H](CC(=O)O)NC1=O) | 10.1
17 | WECPYGLCWIQ | 0.94
18 | GFHCPYDLCHIL | 6.7
19 | H-LPCDYYGVCLD-NH2 (disulfide 3-9 (inferred)) | 28
20 | FHCPYDLCHI | 2
21 | HCPYDLCHIL | 3.8
22 | H-LPCDYYGTCLD-NH2 (disulfide 3-9 (inferred)) | 2.6
23 | H-LPCDAYGTCLD-NH2 (disulfide 3-9; SMILES CC(C)C[C@H](NC(=O)[C@@H]1CSSC[C@H](NC(=O)[C@@H]2CCCN2C(=O)[C@@H](N)CC(C)C)C(=O)N[C@@H](CC(=O)O)C(=O)N[C@@H](C)C(=O)N[C@@H](Cc2ccc(O)cc2)C(=O)NCC(=O)N[C@@H]([C@@H](C)O)C(=O)N1)C(=O)N[C@@H](CC(=O)O)C(N)=O) | 4.5
24 | H-LPCSYYGTCLH-NH2 (disulfide 3-9; SMILES CC(C)C[C@H](NC(=O)[C@@H]1CSSC[C@H](NC(=O)[C@@H]2CCCN2C(=O)[C@@H](N)CC(C)C)C(=O)N[C@@H](CO)C(=O)N[C@@H](Cc2ccc(O)cc2)C(=O)N[C@@H](Cc2ccc(O)cc2)C(=O)NCC(=O)N[C@@H]([C@@H](C)O)C(=O)N1)C(=O)N[C@@H](Cc1c[nH]cn1)C(N)=O) | 9.8
25 | H-LPCDYYGSCLD-NH2 (disulfide 3-9 (inferred)) | 26
26 | H-RPCDYYGTCFD-NH2 (disulfide 3-9; SMILES C[C@@H](O)[C@@H]1NC(=O)CNC(=O)[C@H](Cc2ccc(O)cc2)NC(=O)[C@H](Cc2ccc(O)cc2)NC(=O)[C@H](CC(=O)O)NC(=O)[C@@H](NC(=O)[C@@H]2CCCN2C(=O)[C@@H](N)CCCNC(=N)N)CSSC[C@@H](C(=O)N[C@@H](Cc2ccccc2)C(=O)N[C@@H](CC(=O)O)C(N)=O)NC1=O) | 3.4
27 | H-LPCAYYGTCLD-NH2 (disulfide 3-9; SMILES CC(C)C[C@H](NC(=O)[C@@H]1CSSC[C@H](NC(=O)[C@@H]2CCCN2C(=O)[C@@H](N)CC(C)C)C(=O)N[C@@H](C)C(=O)N[C@@H](Cc2ccc(O)cc2)C(=O)N[C@@H](Cc2ccc(O)cc2)C(=O)NCC(=O)N[C@@H]([C@@H](C)O)C(=O)N1)C(=O)N[C@@H](CC(=O)O)C(N)=O) | 5.9
28 | GWFHCPYDLCHIL (disulfide 5-10 (inferred); not fully specified (N-terminus); printed as Trp-Phe-His-Cys-Pro-Tyr-Asp-Leu-Cys-His-Ile-Leu; also: Gd(III) chelated by DTPA on N-terminal Gly) [Gd-DTPA-Gly[SEQ ID NO: 21]] | 2.9
